± gives the uncertainty stated by the source.
B1: POU domain, class 6, transcription factor 2, residues 609 to 663; numbered along this chain, P78424 (parent)
chain: KRRTSFTPQALEILNAHFEKNTHPSGQEMTEIAEKLNYDREVVRVWFCNKRQALK

Variants of: B1
Test: abundance fitness (aPCA) (normalised: wild type 0, dead -1); higher = more abundant; growth selection in yeast, the domain comes from the species named
Details: Homo sapiens

Variant | abundance fitness
KRRDSFTPQALEILNAHFEKNTHPSGQEMTEIAEKLNYDREVVRVWFCNKRQALK [T4D] | -0.083 ± 0.16
KRRGSFTPQALEILNAHFEKNTHPSGQEMTEIAEKLNYDREVVRVWFCNKRQALK [T4G] | -0.089 ± 0.081
KRRHSFTPQALEILNAHFEKNTHPSGQEMTEIAEKLNYDREVVRVWFCNKRQALK [T4H] | -0.028 ± 0.26
KRRFSFTPQALEILNAHFEKNTHPSGQEMTEIAEKLNYDREVVRVWFCNKRQALK [T4F] | -0.333 ± 0.14
KRRASFTPQALEILNAHFEKNTHPSGQEMTEIAEKLNYDREVVRVWFCNKRQALK [T4A] | -0.09 ± 0.079
KRRCSFTPQALEILNAHFEKNTHPSGQEMTEIAEKLNYDREVVRVWFCNKRQALK [T4C] | -0.058 ± 0.17
KRRESFTPQALEILNAHFEKNTHPSGQEMTEIAEKLNYDREVVRVWFCNKRQALK [T4E] | 0.045 ± 0.11
IRRTSFTPQALEILNAHFEKNTHPSGQEMTEIAEKLNYDREVVRVWFCNKRQALK [K1I] | 0.111 ± 0.2
VRRTSFTPQALEILNAHFEKNTHPSGQEMTEIAEKLNYDREVVRVWFCNKRQALK [K1V] | -0.776 ± 0.3
YRRTSFTPQALEILNAHFEKNTHPSGQEMTEIAEKLNYDREVVRVWFCNKRQALK [K1Y] | -0.41 ± 0.34
HRRTSFTPQALEILNAHFEKNTHPSGQEMTEIAEKLNYDREVVRVWFCNKRQALK [K1H] | -0.309 ± 0.2
LRRTSFTPQALEILNAHFEKNTHPSGQEMTEIAEKLNYDREVVRVWFCNKRQALK [K1L] | -0.465 ± 0.24
WRRTSFTPQALEILNAHFEKNTHPSGQEMTEIAEKLNYDREVVRVWFCNKRQALK [K1W] | -0.267 ± 0.16
SRRTSFTPQALEILNAHFEKNTHPSGQEMTEIAEKLNYDREVVRVWFCNKRQALK [K1S] | -0.275 ± 0.14
NRRTSFTPQALEILNAHFEKNTHPSGQEMTEIAEKLNYDREVVRVWFCNKRQALK [K1N] | 0.043 ± 0.14
TRRTSFTPQALEILNAHFEKNTHPSGQEMTEIAEKLNYDREVVRVWFCNKRQALK [K1T] | -0.077 ± 0.19
RRRTSFTPQALEILNAHFEKNTHPSGQEMTEIAEKLNYDREVVRVWFCNKRQALK [K1R] | -0.269 ± 0.12
KRQTSFTPQALEILNAHFEKNTHPSGQEMTEIAEKLNYDREVVRVWFCNKRQALK [R3Q] | -0.073 ± 0.17
KRATSFTPQALEILNAHFEKNTHPSGQEMTEIAEKLNYDREVVRVWFCNKRQALK [R3A] | -0.136 ± 0.076
KRITSFTPQALEILNAHFEKNTHPSGQEMTEIAEKLNYDREVVRVWFCNKRQALK [R3I] | 0.136 ± 0.12
KRCTSFTPQALEILNAHFEKNTHPSGQEMTEIAEKLNYDREVVRVWFCNKRQALK [R3C] | -0.236 ± 0.12
KRETSFTPQALEILNAHFEKNTHPSGQEMTEIAEKLNYDREVVRVWFCNKRQALK [R3E] | 0.043 ± 0.1
KRNTSFTPQALEILNAHFEKNTHPSGQEMTEIAEKLNYDREVVRVWFCNKRQALK [R3N] | 0.208 ± 0.17
KRDTSFTPQALEILNAHFEKNTHPSGQEMTEIAEKLNYDREVVRVWFCNKRQALK [R3D] | 0.054 ± 0.12

Variant | abundance fitness
KRLTSFTPQALEILNAHFEKNTHPSGQEMTEIAEKLNYDREVVRVWFCNKRQALK [R3L] | 0.057 ± 0.073
KRTTSFTPQALEILNAHFEKNTHPSGQEMTEIAEKLNYDREVVRVWFCNKRQALK [R3T] | -0.134 ± 0.11
KRMTSFTPQALEILNAHFEKNTHPSGQEMTEIAEKLNYDREVVRVWFCNKRQALK [R3M] | 0.01 ± 0.1
KRPTSFTPQALEILNAHFEKNTHPSGQEMTEIAEKLNYDREVVRVWFCNKRQALK [R3P] | 0.004 ± 0.1
KRFTSFTPQALEILNAHFEKNTHPSGQEMTEIAEKLNYDREVVRVWFCNKRQALK [R3F] | 0.053 ± 0.11
KRVTSFTPQALEILNAHFEKNTHPSGQEMTEIAEKLNYDREVVRVWFCNKRQALK [R3V] | -0.001 ± 0.071
KRKTSFTPQALEILNAHFEKNTHPSGQEMTEIAEKLNYDREVVRVWFCNKRQALK [R3K] | -0.009 ± 0.14
KRSTSFTPQALEILNAHFEKNTHPSGQEMTEIAEKLNYDREVVRVWFCNKRQALK [R3S] | 0.02 ± 0.078
KRWTSFTPQALEILNAHFEKNTHPSGQEMTEIAEKLNYDREVVRVWFCNKRQALK [R3W] | -0.265 ± 0.088
KRGTSFTPQALEILNAHFEKNTHPSGQEMTEIAEKLNYDREVVRVWFCNKRQALK [R3G] | -0.035 ± 0.059
KPRTSFTPQALEILNAHFEKNTHPSGQEMTEIAEKLNYDREVVRVWFCNKRQALK [R2P] | -0.118 ± 0.13
KIRTSFTPQALEILNAHFEKNTHPSGQEMTEIAEKLNYDREVVRVWFCNKRQALK [R2I] | -0.059 ± 0.12
KMRTSFTPQALEILNAHFEKNTHPSGQEMTEIAEKLNYDREVVRVWFCNKRQALK [R2M] | 0.064 ± 0.11
KCRTSFTPQALEILNAHFEKNTHPSGQEMTEIAEKLNYDREVVRVWFCNKRQALK [R2C] | -0.345 ± 0.11
KTRTSFTPQALEILNAHFEKNTHPSGQEMTEIAEKLNYDREVVRVWFCNKRQALK [R2T] | 0.041 ± 0.089
KSRTSFTPQALEILNAHFEKNTHPSGQEMTEIAEKLNYDREVVRVWFCNKRQALK [R2S] | 0.106 ± 0.089
KGRTSFTPQALEILNAHFEKNTHPSGQEMTEIAEKLNYDREVVRVWFCNKRQALK [R2G] | -0.034 ± 0.065
KNRTSFTPQALEILNAHFEKNTHPSGQEMTEIAEKLNYDREVVRVWFCNKRQALK [R2N] | 0.095 ± 0.1
KHRTSFTPQALEILNAHFEKNTHPSGQEMTEIAEKLNYDREVVRVWFCNKRQALK [R2H] | -0.144 ± 0.26
KARTSFTPQALEILNAHFEKNTHPSGQEMTEIAEKLNYDREVVRVWFCNKRQALK [R2A] | 0.038 ± 0.085
KQRTSFTPQALEILNAHFEKNTHPSGQEMTEIAEKLNYDREVVRVWFCNKRQALK [R2Q] | 0.026 ± 0.17
KFRTSFTPQALEILNAHFEKNTHPSGQEMTEIAEKLNYDREVVRVWFCNKRQALK [R2F] | -0.056 ± 0.14
KERTSFTPQALEILNAHFEKNTHPSGQEMTEIAEKLNYDREVVRVWFCNKRQALK [R2E] | 0.108 ± 0.12
KWRTSFTPQALEILNAHFEKNTHPSGQEMTEIAEKLNYDREVVRVWFCNKRQALK [R2W] | -0.334 ± 0.087

Source: the Human Domainome abundance scans (Beltran et al. 2025)
